Biological target: FLAG-Aac2 (S. cerevisiae) (UniProt P18239)
Test: co-IP

Sequence of UniProt P18239 (P18239 whole entry): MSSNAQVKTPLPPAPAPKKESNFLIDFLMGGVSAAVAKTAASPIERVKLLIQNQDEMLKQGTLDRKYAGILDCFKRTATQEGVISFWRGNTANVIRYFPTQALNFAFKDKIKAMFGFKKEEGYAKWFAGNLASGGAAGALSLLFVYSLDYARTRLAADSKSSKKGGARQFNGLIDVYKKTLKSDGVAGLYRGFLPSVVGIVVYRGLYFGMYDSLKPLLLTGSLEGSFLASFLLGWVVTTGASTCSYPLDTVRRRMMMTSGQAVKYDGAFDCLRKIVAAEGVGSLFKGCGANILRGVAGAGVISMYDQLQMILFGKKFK

Row | Substance | percent decrease of the amount co-immunoprecipitated after BKA, against CATR
1 | respiratory complex IV (from UniProt P00401 1-534; P04037 26-155) | 50%
2 | respiratory complex III (from UniProt P07256 27-457; P07257 17-368; P08067 31-215; P00127 1-147) | 25%
